Results from patent US20070269439A1 (published 2007).
Where “and” joins values, the source holds several entries; their conditions need not be identical. Equal entries are not always repeated.

T1: IL17RLP (Met-(-19) through Gly-270 of SEQ ID NO:2)-Fc fusion (human, UniProt Q9NRM6 18-289)
T1 construct: also called IL17RLP-Fc; soluble IL17RLP-Fc fusion protein; not shown: human Fc domain (heavy chain constant region of IgG1)
T1 sequence: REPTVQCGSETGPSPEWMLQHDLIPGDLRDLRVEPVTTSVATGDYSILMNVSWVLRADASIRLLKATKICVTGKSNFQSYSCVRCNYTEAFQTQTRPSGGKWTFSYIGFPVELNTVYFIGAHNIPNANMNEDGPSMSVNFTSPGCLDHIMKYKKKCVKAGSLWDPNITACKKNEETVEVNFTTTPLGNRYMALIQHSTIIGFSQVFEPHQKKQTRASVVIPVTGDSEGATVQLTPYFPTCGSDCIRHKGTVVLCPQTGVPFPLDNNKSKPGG

B1: recombinant human IL-20 expressed in CHO cells (purified protein or conditioned culture supernatant) (ligand)
chain: RSPKSKRKGQGRPGPLAPGPHQVPLDLVSRMKPYARMEEYERNIEEMVAQLRNSSELAQRKCEVNLQLWMSNKRSLSPWGYSINHDPSRIPVDLPEARCLCLGCVNPFTMQEDRSMVSVPVFSQVPVRRRLCPPPPRTGPCRQRAVMETIAVGCTCIF
notes: The complete ORF was expressed in CHO cells and the protein was secreted; The preparation is heterogeneous; Residues 23-180 is the longest species observed; GenBank AF212311 is printed; also called hIL-20; huIL-20

Experiments:
[1] = biological target: IL-17 receptor (receptor of the first BIACORE screen of Example 8; construct not stated) (Homo sapiens (Human)) (UniProt Q96F46); experiment: BIACORE SPR; IL-17 at 25 ug/mL
[2] = biological target: IL-17 receptor (receptor of the first BIACORE screen of Example 8; construct not stated) (Homo sapiens (Human)) (UniProt Q96F46); experiment: BIACORE SPR; conditioned CHO culture supernatant, IL-20 concentration estimated at ~25 ug/mL
[3] = biological target: T2, IL-17 receptor (Met-1 through Asp-315)-Fc (human, UniProt Q96F46 33-315); experiment: BIACORE SPR (summary of Example 8)
T2 construct: range 1-315; also called IL17R-Fc; huIL-17R extracellular domain-Fc; not shown: human Fc domain (heavy chain constant region of IgG1)
T2 sequence (Q96F46 33-315 limits assumed): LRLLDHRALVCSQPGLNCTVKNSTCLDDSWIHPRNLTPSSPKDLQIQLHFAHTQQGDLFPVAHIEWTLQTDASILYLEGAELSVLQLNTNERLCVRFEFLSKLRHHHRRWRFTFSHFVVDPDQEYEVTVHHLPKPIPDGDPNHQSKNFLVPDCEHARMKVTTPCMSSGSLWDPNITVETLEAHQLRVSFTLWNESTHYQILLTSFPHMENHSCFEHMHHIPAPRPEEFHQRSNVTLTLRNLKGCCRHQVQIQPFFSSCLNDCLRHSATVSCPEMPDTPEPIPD
Procedure: (§1) Binding Analyses—IL-20 protein was dialyzed against 10 mM sodium acetate buffer, pH 5 and a BIACORE™ flow cell was prepared for each receptor at densities of 7900 and 9600 RU for IL-17R and IL17RLP, respectively. Various concentrations of purified IL-20 and IL-17 (R&D Systems, Minneapolis, Minn.) in 50 microliters herpes-buffered saline (HBS) buffer were examined for receptor binding at a flow rate of 15 microliters per minute. After injection of sample the flow cell was equilibrated with HBS. Flow cells were regenerated using two 40 sec pulses of 10 mM HCl.

[4] = biological target: T1, IL17RLP (Met-(-19) through Gly-270 of …); experiment: BIACORE SPR (summary of Example 8)
Procedure: as §1

Molecule | SPR binding response (RU) [1] [RU] | SPR binding response (RU) [2] | binding result [3] | binding result [4]
Recombinant human IL-17 (R&D Systems) (from UniProt Q16552 20-155) (ligand) | 60 |  |  | 
B1 |  | 115 RU and 65 RU | binds | binds
